Data from the supplement of paper PMC9170038.

Tests used:
[1] = system: MS2 coat protein; assay: apparent KD of MS2 coat protein, switch OFF state (with FMN for OFF switches, without FMN for ON switches); designed switch direction (-1 OFF switch, 1 ON switch): 1; higher = weaker reporter binding; details: FMN input: 0 or 200 uM; Eterna round: R93 (includes R88 designs)
In short: (§1)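 Apparent KD per design is the median of normalised cluster binding-curve fits. Designed RNA switches transcribed on-chip from Illumina sequencing clusters were titrated with SNAP-549-labelled MS2 coat protein in twofold steps from 0.7 or 1.5 nM to 3 µM, with 0.8–1.5 h down to 10–20 min per step. Buffer: 100 mM Tris-HCl pH 7.5, 80 mM KCl, 4 mM MgCl2, without or with constant ligand.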

[2] = system: MS2 coat protein; assay: apparent KD of MS2 coat protein, switch ON state; designed switch direction (-1 OFF switch, 1 ON switch): 1; higher = weaker reporter binding; details: FMN input: 0 or 200 uM; Eterna round: R93 (includes R88 designs)
In short: as §1

Row | Sequence | apparent KD of MS2 coat protein [1] [nM] | apparent KD of MS2 coat protein [2] [nM]
1 | AAAUAAAUGACUGAGGAUAUAUCGAAGAAGACAUGAGGAUCACCCAUGUGAUAAUAAAAAGGGUGGUAGAAGGUAGUCAACAAAC [Mod 8 of Pariah 4 by Hyphema in Round 1] | 122 | 133
2 | AAAUAACAUGAGGAUCACCCAUGUUACAACAAUACAGGAUAUGUGGGUGAAAAUAGCAUGACAGAAGGGUAAUGUA [SameState1 Malc#32] | 79.8 | 239
3 | AAAUAACAUGCGCAGGAUAUGAGACCGAUAACAUGAGGAUCACCCAUGUUAAGGAAGAAAUAAAAUCAGAAGGGUGGGUGGACCU [Aatteri] | 26.6 | 25.7
4 | AAAUUACAUGAGGAUCACCCAUGUAGCGACGUGACAGGAUAUGUGGGUGAAAAUAGCAUGACAGAAGGGUCCCGUA [SameState1 Malc#40] | 23.1 | 57.8
5 | AACAAUCUAUCUGAGGAUAUAUGUCAAAAGACAUGAGGAUCACCCAUGUAAAAACAUGAAAAAACAUAGAAGGCAGAUAGAUUGA [SS2: 1134] | 120 | 41.5
6 | AACAAUCUAUCUGAGGAUAUAUGUCGAAAGACAUGAGGAUCACCCAUGUAAAAACAUGAAAAGACAUAGAAGGCAGAUAGAUUGA [SS2: 1132] | 36.1 | 18.6
7 | AACAAUCUAUCUGAGGAUAUCAUGUAAAAGACAUGAGGAUCACCCAUGUUGCAGGAAACUGCUCAUGAGAAGGCAGAUAGAUUGA [SS2: 1125] | 13.8 | 12.8
8 | AACAAUCUAUCUGAGGAUAUCAUGUCAAAGACAUGAGGAUCACCCAUGUACCAGGAAACUGGAUAUGAGAAGGCAGAUAGAUUGA [SS2: 1119] | 204 | 16.1
9 | AACAAUCUAUCUGAGGAUAUCAUGUGAAAGACAUGAGGAUCACCCAUGUCGCAGGAAACUGCUCAUGAGAAGGCAGAUAGAUUGA [SS2: 1127] | 12.5 | 15.6
10 | AACAUACAUGAGGAUCACCCAUGUUCCGGCAGGUCAGGAUAUUUAUCGAAUGAGUUCUAGAAAGAAGGGACAUAAA [JR_SS001_Sub008] | 62.7 | 45.8
11 | AACUACAUUAUGAAGGAUAUCCACAUCAAGACAUGAGGAUCACCCAUGUAUACUUAGAUCAUACAGGAGAAGGUCAAGGGUGAAU [JR_SS002_Sub1207] | 89.2 | 244
12 | AAGAAACAUGAGGAUCACCCAUGUAAUAAUAUGGGAGGAUAUACAAGGACAAUAGUCAAGGUAGAAGGCCUAAGAA [Mat - Same State 1 - Meechl mod - D142] | 249 | 26.7
13 | AAGAAACAUGAGGAUCACCCAUGUGAGAAUAUGGGAGGAUAUACAAGGACGUAAGUCAAGGUAGAAGGCCUAAGAA [Mat - Same State 1 - Meechl mod - D139] | 200 | 25.8
14 | AAGAAACAUGAGGAUCACCCAUGUGAGAUAAACACAGGAUAUGCGAAAAGAAAUAAAUAAGCAGAAGGGUGAAGAA [Mat - Same State 1 - Tesla mod - 70] | 62.6 | 26.4
15 | AAGAAACAUGAGGAUCACCCAUGUGAUAAUAUGGGAGGAUAUACAAAGACGAAAGACGAAGUAGAAGGCCUAAGAA [Garnet 47] | 114 | 56.3
16 | AAUAAAAAUAGUCAGGAUAUGAGAAAUAAGACAUGAGGAUCACCCAUGUAAUAAGUAAAAGUAAAUUAGAAGGGACAGGGUGAAA [JR_SS002_Sub019] | 167 | 200
17 | AAUAAACAUGAGGAUCACCCAUGUGGUGGCCCAUGAGGAUAUCCAUGUACAUUGUACACAGGAGAAGGCAUAGCCA [Tioredes] | 27 | 119
18 | AAUAAUUAUACGAAGGAUAUCGGUAAUUAGACAUGAGGAUCACCCAUGUAAUAUGGUUAAAUAUUCGAGAAGGUCGAGGGUGAAA [JR_SS002_Sub504] | 29.4 | 336
19 | AAUAAUUAUACGAAGGAUAUCGGUAAUUAGACAUGAGGAUCACCCAUGUUAUAUGGUUAAAUAUUCGAGAAGGUCGAGGGUGAAA [JR_SS002_Sub505] | 32.7 | 36.1
20 | AAUAUACAUGAGGAUCACCCAUGUUUUGGUGGGUCAGGAUAUAAAAACAAUUACAUAAAGUUAGAAGGGACAAAUA [JR_SS001_Sub004] | 121 | 111
21 | AAUCCAAAUAGUUAGGAUAUGGGAAUUAAGACAUGAGGAUCACCCAUGUCAUUAAAACAAGUUAACCAGAAGGGACAGGGUGAAA [JR_SS002_Sub208] | 26.6 | 14.7
22 | AAUCCAACUAGUCAGGAUAUCAGGCGUAAGACAUGAGGAUCACCCAUGUCCUUAGUACAAGUAACUGAGAAGGGACAGGGCGACC [JR_SS002_Sub410] | 39.5 | 74.9

Row | Sequence | apparent KD of MS2 coat protein [1] [nM] | apparent KD of MS2 coat protein [2] [nM]
23 | AAUGAACAUGAGGAUCACCCAUGUUCUAAUAGUUGAGGAUAUGUGGGUGAAAAUAGCACGGCAGAAGGCGAGUGUA [SameState1 Malc#19] | 80.7 | 101
24 | ACAAAACAUGAGGAUCACCCAUGUAUAAAUAUAACAGGAUAUGGGACUGCCGAUUAGGCACCAGAAGGGUUUUCAC [Atearve] | 27.3 | 20.8
25 | ACAAAACAUGAGGAUCACCCAUGUCGACUAAAUCAAGGAUAUGGGAAUGCGAAAGCAAAGCCAGAAGGUGAGGUCC [Xeorarbiar] | 185 | 294
26 | ACAUGCUGCCGGCAGGAUAUCGCUUGGCGGACAUGAGGAUCACCCAUGUGAGAAAGUCGCGCGCGCGAGAAGGGCCAUGGUAUCAG [SameState2_Neo] | 61.1 | 89.3
27 | ACGGUCAAGUGUGAGGAUAUCCAGGCUCCCACAUGAGGAUCACCCAUGUCUUAAAGGGCGUAAAGGGAGAAGGUACGAACGCCAC [Vesolees] | 45.3 | 33.2
28 | AGAAAACAUGAGGAUCACCCAUGUAGAAAUAUGGGAGGAUAUACAAAGACGAAAGUCAAGGUAGAAGGCCUAAAGA [Mat - Same State 1 - Meechl mod - D124] | 99.9 | 20
29 | AGAAAACAUGAGGAUCACCCAUGUAGGAAUAUGGGAGGAUAUACAAAGACGAAAGUCAGAGUAGAAGGCCUAAGAA [salish99-SS1-087] | 81.8 | 24.1
30 | AGAAAACAUGAGGAUCACCCAUGUGACAAUAUGGGAGGAUAUACAAAGACGAAAGUCGAAGUAGAAGGCCUAAAGA [Garnet 52] | 69.7 | 26.1
31 | AGAAAUAAAACACAGGAUAUCCAAAAGAAAACAUGAGGAUCACCCAUGUAAAAGAAAAUAAAAUGGGAGAAGGGUGAAAAUAAAG [Breaking Jandersonlee's winner (80%)] | 52.6 | 38
32 | AGAAAUAAAACACAGGAUAUCCAAAAGAAAACAUGAGGAUCACCCAUGUAAAGAAAAUAAAAAUGGGAGAAGGGUGAAAAUAAGA [Mat - Same State 2 - JL mod - D15] | 31.5 | 19.9
33 | AGAAAUAAAAGAGAGGAUAUCCAAAAGAAAACAUGAGGAUCACCCAUGUAAAAGAAAAUAAAAUGGGAGAAGGCUCAAAAUAAAGA [Helter Skelter 2] | 69.7 | 21.6
34 | AGAAAUAAAAGAGAGGAUAUCCAAAAUAAAACAUGAGGAUCACCCAUGUGUACGAAAGUACAAUGGGAGAAGGCUCAAAAUAAAG [80% More Helter Skelter 2 + Hairpin] | 6.54 | 1280
35 | AGAAAUAAAAGGCAGGAUAUCCAAAAGAAAACAUGAGGAUCACCCAUGUAAAAGAAAAUAAAGUGGGAGAAGGGCCAAAAUAAAG [My design (73%) + Space bases] | 36.5 | 11.7
36 | AGAAAUAAAAUGGAGGAUAUCCAAAAGAAAACAUGAGGAUCACCCAUGUAAAAGAAAAUAAAAUGGGAGAAGGCCACAAAUAAAG | 31.4 | 26.8
37 | AGAAAUAAAUGAGAGGAUAUCCUAAAGAAAACAUGAGGAUCACCCAUGUAAAAGAAAAUAAAAUGGGAGAAGGCUCAUAAUAAAG [Starry Same State 2 (jandersonlee round 1 mod)] | 35.5 | 20.8
38 | AGCACGGGAUUGGAGGAUAUGUUGUUUGCAACAUGAGGAUCACCCAUGUCUGAGGCUGAAAAGCAGCAGAAGGCCGAUACAACCA [SS2-1.2] | 367 | 43.8
39 | AGCACGUGAUUGGAGGAUAUGCAGUAAGCAACAUGAGGAUCACCCAUGUCUGACCCUGAAAACCAGCAGAAGGCCGAUACAACCA [SS2-1.7] | 13 | 10.2
40 | AGCACGUGAUUGGAGGAUAUGUUGUAAGCAACAUGAGGAUCACCCAUGUCUGAGGCUGAAAAGCAGCAGAAGGCCGAUACAACCA [SS2-1.3] | 110 | 37.2
41 | AGGAAACAUGAGGAUCACCCAUGUAAAAAAAUGGGAGGAUAUACUAGAAGAAACAAAAUAGUAGAAGGCCUAAAAA [75%, Ex sub1, 27] | 74.9 | 18.9
42 | AGGAAACAUGAGGAUCACCCAUGUAAAAAUAUAGGAGGAUAUGCGAAAAGAAACAAAGAAGCAGAAGGCUUAAAAA [75%, Ex sub1, 22] | 20.8 | 13.1
43 | AGGAAACAUGAGGAUCACCCAUGUAAAAAUAUGGAAGGAUAUGGAAACACGAAAGUGAAACCAGAAGGUUCAAAAA [77%, Mat - Mod of Eli, 22] | 24.7 | 18.5
